According to patent US5162203A, “Methods of measuring isozymes and isozyme classes of alcohol dehydrogenase” (President and Fellows of Harvard College, priority 1989, dated 1992):
“And” between values parts separate entries of the source, which are not always exact repeats. Equal values may be shown once.

Columns and labels:
[1] = target: ADH in human serum (Class II) (Homo sapiens, UniProt P08319); test: Fluorometric measurement of serum ADH activity with substrate IIA; format: biochemical; details: Class II, substrate IIA
Protocol: All reaction mixtures (3 ml total volume) were prepared directly in 1 cm pathlength, 4 ml fluorometric cuvettes by adding 150 μl of the 300 μM substrate solution (e.g substrate IA or IIA) 100 μl of the 1 mM NADH solution (prepared as in part 5 above) and 2.69 ml of assay buffer (0.1M phosphate, pH 7.6). After thermal equilibration (25° C.) for 5 minutes, 60 μl of isozyme sample (either serum or purified ADH isozymes) was added to the cuvette.
The linear increase of fluorescence was then recorded for 1-10 minutes, until 0.03-1 μM of substrate was consumed. Larger substrate consumption was not found to be desirable (described in subpart (c) below). […] The added product fluorescence intensity was then measured Fluorescence measurements were optimized for samples with low activity (<1 nM/minute). […] Rates measured in the presence of the 0.2 mM ADH inhibitors. […]
The rates of aldehyde reduction, determined as initial velocities (V) and expressed in units of nM/minute, were calculated according to: [formula] where the quantity in parentheses is the slope of the linear fluorescence increase calculated from the quantities Ft and FO, the fluorescence at time t and at the beginning of the reaction, respectively. Cst is the concentration of the product used as a standard added to the cuvette after the initial rate had been measured and Fst is the fluorescence intensity of the added product […]

[2] = Reconstitution of purified ADH in inactive diluted human serum, substrate IIA; format: biochemical; details: Class II, 50-fold diluted serum, listed as II
Protocol: The ADH isozymes employed were electrophoretically homogeneous with symmetrical HPLC elution profiles and had the highest constant specific activity. Their activity was established both by the standard A340 assay using ethanol and using substrates IA and IIA under conditions described herein, but in the absence of serum.
After the residual background reaction was recorded, a purified ADH isozyme prepared as described in Example 1 was then added and the rate measured as described in part 8 of Example 1. All measurements were made in triplicate.

[3] = Specific activity of purified ADH isozymes in ethanol oxidation assay; format: biochemical
From the text: The isozymes used as primary standards were homogeneous based on SDS-polyacrylamide, urea-polyacrylamide and starch gel electrophoresis as described above. […] Using ethanol as substrate in a conventional ADH assay as described in part 8 of this Example, the specific activity of each purified ADH isozyme was established by monitoring NADH production by the change in absorbance at 340 nm on a Cary 219 spectrophotometer calibrated with potassium chromate absorbance standards (Fisher Chem. Co., Medford, MA) The activity of the purified ADH Class I isozymes were also assayed according to methods of the present invention (Examples 1 (part 8), 2 and 4).
A modification of the procedure of Ditlow et al., 1984, Biochemistry 23:6363-68, was used to purify Class II ADH from human livers proceeding from the preparation of Class I isozymes as described in subpart (a) above. The effluent of the CapGapp column obtained during the loading and binding of Class I was concentrated to about 200 ml in an Amicon concentrator with a PM.30 membrane and dialyzed 16 hours against 10 liters of 10 mM potassium phosphate, 0.1 mM DTT, pH 7.4 containing 10 μM octanal. The sample was applied to a column (3×5 cm) of agarose-AMP affinity resin at a flow rate of 0.5 ml/minute followed by washing of the column with 200 ml of the dialysis buffer. The bound enzyme was eluted with 150 ml of the dialysis buffer with a gradient of NADH from 0 to 66 μg/ml.
Standard assays for ethanol oxidation activity (Dalziel, 1957, Acta Chem Scand 11:1706-23) were carried out on a Cary 219 spectrophotometer interfaced with an Apple IIe microcomputer, using software provided by Varian Associates. The reaction mixture contained 2.5 mM NAD^+ in 0.1M glycine-NaOH buffer. pH 10.0, and 33 mM or 0.2M ethanol for Class I and Class II ADH, respectively.

[4] = Effect of storage conditions and time on ADH activity in serum; format: physicochemical, human
Protocol: Fresh serum samples were obtained from the Clinical Chemistry Laboratory at Brigham and Women's Hospital, Boston, Mass. All serum measurements reported herein were performed within 5 hours of phlebotomy unless otherwise indicated On storage there is considerable variation in the ADH activity of serum samples from the same and different patients. FIGS. 5A and 5B show the effect of storage at 4° C. (closed circles) and room temperature (closed squares) in a typical serum sample, using substrate IA (FIG. 5A) and substrate IIA (FIG. 5B) as measured by the four-assay procedure of Example 4.

Row | Molecule | limit of detection as isozyme concentration [1] [nM] | Recovery [2] | specific activity ([3]; purified Class II ADH) [U/mg] | Average Activity Retained ([4]; 4 °C, 2 days) [%] | Average Activity Retained ([4]; 23 °C, 1 day) [%] | Average Activity Retained ([4]; 23 °C, 2 days) [%] | stability of activity in serum ([4]; -70° C.) | Average Activity Retained ([4]; -70 °C, 30 days) [%] | half-life of ADH activity in sera ([4]; room temperature) | specific activity ([3]; ethanol oxidation, pH 10) [U/mg]
1 | Class II ADH: human liver Class II alcohol dehydrogenase (protein, UniProt P08319 1-380, looked up) All-trans-retinol …: MGTKGKVIKCKAAIAWEAGKPLCIEEVEVAPPKAHEVRIQIIATSLCHTDATVIDSKFEGLAFPVIVGHEAAGIVESIGPGVTNVKPGDKVIPLYAPLCRKCKFCLSPLTNLCGKISNLKSPASDQQLMEDKTSRFTCKGKPVYHFFGTSTFSQYTVVSDINLAKIDDDANLERVCLLGCGFSTGYGAAINNAKVTPGSTCAVFGLGGVGLSAVMGCKAAGASRIIGIDINSEKFVKAKALGATDCLNPRDLHKPIQEVIIELTKGGVDFALDCAGGSETMKAALDCTTAGWGSCTFIGVAAGSKGLTIFPEELIIGRTINGTFFGGWKSVDSIPKLVTDYKNKKFNLDALVTHTLPFDKISEAFDLMNQGKSVRTILIF | 0.17 | 82.0% and 83.4% and 85.9% and 81.3% | 1.5 | 55 | 66 | 51 | at least one month | 100 | a few hours to >3 days | 
2 | β1 β1: Class I human ADH isozyme, β1 homodimer (protein, UniProt P00325 2-375, looked up, homodimer, Class I human ADH isozyme, β1 homodimer) All-trans-retinol …: STAGKVIKCKAAVLWEVKKPFSIEDVEVAPPKAYEVRIKMVAVGICHTDDHVVSGNLVTPLPVILGHEAAGIVESVGEGVTTVKPGDKVIPLFTPQCGKCRVCKNPESNYCLKNDLGNPRGTLQDGTRRFTCRGKPIHHFLGTSTFSQYTVVDENAVAKIDAASPLEKVCLIGCGFSTGYGSAVNVAKVTPGSTCAVFGLGGVGLSAVMGCKAAGAARIIAVDINKDKFAKAKELGATECINPQDYKKPIQEVLKEMTDGGVDFSFEVIGRLDTMMASLLCCHEACGTSVIVGVPPASQNLSINPMLLLTGRTWKGAVYGGFKSKEGIPKLVADFMAKKFSLDALITHVLPFEKINEGFDLLHSGKSIRTVLTF |  |  |  |  |  |  |  |  |  | 0.42
3 | γ1γ1: Class I human ADH isozyme, γ1 homodimer (protein, UniProt P00326 2-375, looked up, homodimer, Class I human ADH isozyme, γ1 homodimer) Alcohol dehydrogenase 1C: STAGKVIKCKAAVLWELKKPFSIEEVEVAPPKAHEVRIKMVAAGICRSDEHVVSGNLVTPLPVILGHEAAGIVESVGEGVTTVKPGDKVIPLFTPQCGKCRICKNPESNYCLKNDLGNPRGTLQDGTRRFTCSGKPIHHFVGVSTFSQYTVVDENAVAKIDAASPLEKVCLIGCGFSTGYGSAVKVAKVTPGSTCAVFGLGGVGLSVVMGCKAAGAARIIAVDINKDKFAKAKELGATECINPQDYKKPIQEVLKEMTDGGVDFSFEVIGRLDTMMASLLCCHEACGTSVIVGVPPDSQNLSINPMLLLTGRTWKGAIFGGFKSKESVPKLVADFMAKKFSLDALITNILPFEKINEGFDLLRSGKSIRTVLTF |  |  |  |  |  |  |  |  |  | 4.4
